Experimental data reported in patent publication US20230212319A1, “NOVEL ANTIGEN BINDING DOMAINS AND SYNTHETIC ANTIGEN RECEPTORS INCORPORATING THE SAME” (University of Southern California, priority 2020, published 2023).

B1: 22183 (protein)
chain: MALPVTALLLPLALLLHAARPACQVQLQESGAGLLKPSETLSLTCAVYGGSFSAYNWNWIRQPPGKGLEWIGEINHRGDTAYNPSLKSRVTISVDTSKNQFSLNLTSVTAADTAVYYCAARGYSYGWPPGYISDAFDIWGQGTQVTVSSGTGGGGSGGGGSGGGGSEFDIQMTQSPSSLSASVGDRVTITCKASDHINNWLAWYQQKPGQAPKLLIYGATTLETGVPSRFSGSGSGTDYTLTISSLQPEDFATYYCQQSWNTPWTFGQGTKLEIKRLEDLKNVFPPEVAVFEPSEAEISHTQKATLVCLATGFYPDHVELSWWVNGKEVHSGVCTDPQPLKEQPALNDSRYCLSSRLRVSATFWQNPRNHFRCQVQFYGLSENDEWTQDRAKPVTQIVSAEAWGRADCGFTSESYQQGVLSATILYEILLGKATLYAVLVSALVLMAMVKRKDSRGRAKRSGSGATNFSLLKQAGDVEENPGPTSMDWIWRILFLVGAATGAHSFEQVQLQQPGAELVKPGASVKMSCKASGYAFSSYWINWMKQKPGQGLEWIGQIYPGDGDTNYNGKFKGRATLTADTSSSTAYMQLSSLTSEDSAVYFCARSITTVVGCAMDYWGQGTSVTVSSTRIQNPDPAVYQLRDSKSSDKSVCLFTDFDSQTNVSQSKDSDVYITDKCVLDMRSMDFKSNSAVAWSNKSDFACANAFNNSIIPEDTFFPSPESSCDVKLVEKSFETDTNLNFQNLSVIGFRILLLKVAGFNLLMTLRLWSSRAKRSGSGVKQTLNFDLLKLAGDVESNPGPSRGHMTEYKPTVRLATRDDVPRAVRTLAAAFADYPATRHTVDPDRHIERVTELQELFLTRVGLDIGKVWVADDGAAVAVWTTPESVEAGAVFAEIGPRMAELSGSRLAAQQQMEGLLAPHRPKEPAWFLATVGVSPDHQGKGLGSAVVLPGVEAAERAGVPAFLETSAPRNLPFYERLGFTVTADVEVPEGPRTWCMTRKPGA
B2: 22194 (protein)
chain: MALPVTALLLPLALLLHAARPQLQLQESGPGLVKPSETLSLTCTVSGDSISSGDYYWGWIRQPPGKGLEWIGHIYYSGVTYYNPSLKSRVTISVDTSRNQFSLKLSSVTAADTAVYYCTREDSSNWRSRGQGTLVTVSSLEGQPKANPTVTLFPPSSEELQANKATLVCLISDFYPGAVTVAWKADGSPVKAGVETTKPSKQSNNKYAASSYLSLTPEQWKSHRSYSCQVTHEGSTVEKTVAPTECSPIKTDVITMDPKDNCSKDANDTLLLQLTNTSAYYMYLLLLLKSVVYFAIITCCLLRRTAFCCNGEKSRAKRSGSGATNFSLLKQAGDVEENPGPTSMDWIWRILFLVGAATGAHSFEYAKEMRNAYWEIALLPNLTNQQKRAPIRKLYDDPSQSSELLSEAKKLNDSQTRASTKGPSVFPLAPSSKSTSGGTAALGCLVKDYFPEPVTVSWNSGALTSGVHTFPAVLQSSGLYSLSSVVTVPSSSLGTQTYICNVNHKPSNTKVDKRVEPKSCEVKTDSTDHVKPKETENTKQPSKSCHKPKAIVHTEKVNMMSLTVLGLRMLFAKTVAVNFLLTAKLFFLRAKRSGSGVKQTLNFDLLKLAGDVESNPGPSRGHMTEYKPTVRLATRDDVPRAVRTLAAAFADYPATRHTVDPDRHIERVTELQELFLTRVGLDIGKVWVADDGAAVAVWTTPESVEAGAVFAEIGPRMAELSGSRLAAQQQMEGLLAPHRPKEPAWFLATVGVSPDHQGKGLGSAVVLPGVEAAERAGVPAFLETSAPRNLPFYERLGFTVTADVEVPEGPRTWCMTRKPGA
B3: 22218 (protein)
chain: MALPVTALLLPLALLLHAARPACQDKLTQWPKWLEGTGGGGSGGGGSGGGGSEFDIQMTQSPSSLSASVGDRVTITCKASDHINNWLAWYQQKPGQAPKLLIYGATTLETGVPSRFSGSGSGTDYTLTISSLQPEDFATYYCQQSWNTPWTFGQGTKLEIKRLEDLKNVFPPEVAVFEPSKAEIAHTQKATLVCLATGFYPDHVELSWWVNGKEVHSGVCTDPQPLKEQPALNDSRYCLSSRLRVSATFWQNPRNHFRCQVQFYGLSENDEWTQDRAKPVTQIVSAEAWGRADCGITSASYHQGVLSATILYEILLGKATLYAVLVSALVLMAMVKRKDSRGRAKRSGSGATNFSLLKQAGDVEENPGPTSATMDWIWRILFLVGAATGAHSGPQVQLQESGGGLAQAGGSLRLSCAASGRTFSMGWFRQAPGKEREFVAAITYSGGSPYYASSVRGRFTISRDNAKNTVYLQMNSLKPEDTAVYYCAANPTYGSDWNAENWGQGTQVTVSSGSGGGGSGGGGSGGGGSFEQVQLQQPGAELVKPGASVKMSCKASGYAFSSYWINWMKQKPGQGLEWIGQIYPGDGDTNYNGKFKGRATLTADTSSSTAYMQLSSLTSEDSAVYFCARSITTVVGCAMDYWGQGTSVTVSSTRIQNPDPAVYQLRDSKSSDKSVCLFTDFDSQTNVSQSKDSDVYITDKCVLDMRSMDFKSNSAVAWSNKSDFACANAFNNSIIPEDTFFPSSDVPCDVKLVEKSFETDTNLNFQNLSVIGFRILLLKVAGFNLLMTLRLWSSRAKRSGSGVKQTLNFDLLKLAGDVESNPGPSRGHMTEYKPTVRLATRDDVPRAVRTLAAAFADYPATRHTVDPDRHIERVTELQELFLTRVGLDIGKVWVADDGAAVAVWTTPESVEAGAVFAEIGPRMAELSGSRLAAQQQMEGLLAPHRPKEPAWFLATVGVSPDHQGKGLGSAVVLPGVEAAERAGVPAFLETSAPRNLPFYERLGFTVTADVEVPEGPRTWCMTRKPGA
B4: 22219 (protein)
chain: MALPVTALLLPLALLLHAARPDIQMTQSPSSLSASVGDRVTITCKASDHINNWLAWYQQKPGQAPKLLIYGATTLETGVPSRFSGSGSGTDYTLTISSLQPEDFATYYCQQSWNTPWTFGQGTKLEIKRLEDLKNVFPPEVAVFEPSEAEISHTQKATLVCLATGFYPDHVELSWWVNGKEVHSGVCTDPQPLKEQPALNDSRYCLSSRLRVSATFWQNPRNHFRCQVQFYGLSENDEWTQDRAKPVTQIVSAEAWGRADCGFTSESYQQGVLSATILYEILLGKATLYAVLVSALVLMAMVKRKDSRGRAKRSGSGATNFSLLKQAGDVEENPGPTSATMDWIWRILFLVGAATGAHSGPSACPYSNPSLCSGSGGGGSGGGGSGGGGSFEQVQLQQPGAELVKPGASVKMSCKASGYAFSSYWINWMKQKPGQGLEWIGQIYPGDGDTNYNGKFKGRATLTADTSSSTAYMQLSSLTSEDSAVYFCARSITTVVGCAMDYWGQGTSVTVSSTRIQNPDPAVYQLRDSKSSDKSVCLFTDFDSQTNVSQSKDSDVYITDKCVLDMRSMDFKSNSAVAWSNKSDFACANAFNNSIIPEDTFFPSPESSCDVKLVEKSFETDTNLNFQNLSVIGFRILLLKVAGFNLLMTLRLWSSRAKRSGSGVKQTLNFDLLKLAGDVESNPGPSRGHMTEYKPTVRLATRDDVPRAVRTLAAAFADYPATRHTVDPDRHIERVTELQELFLTRVGLDIGKVWVADDGAAVAVWTTPESVEAGAVFAEIGPRMAELSGSRLAAQQQMEGLLAPHRPKEPAWFLATVGVSPDHQGKGLGSAVVLPGVEAAERAGVPAFLETSAPRNLPFYERLGFTVTADVEVPEGPRTWCMTRKPGA
B5: 22222 (protein)
chain: MALPVTALLLPLALLLHAARPACPQLGPYELWELSHGTGAVVRGAEFDIQMTQSPSSLSASVGDRVTITCKASDHINNWLAWYQQKPGQAPKLLIYGATTLETGVPSRFSGSGSGTDYTLTISSLQPEDFATYYCQQSWNTPWTFGQGTKLEIKRLEDLKNVFPPEVAVFEPSKAEIAHTQKATLVCLATGFYPDHVELSWWVNGKEVHSGVCTDPQPLKEQPALNDSRYCLSSRLRVSATFWQNPRNHFRCQVQFYGLSENDEWTQDRAKPVTQIVSAEAWGRADCGITSASYHQGVLSATILYEILLGKATLYAVLVSALVLMAMVKRKDSRGRAKRSGSGATNFSLLKQAGDVEENPGPTSATMDWIWRILFLVGAATGAHSGPQVQLQESGGGLAQAGGSLRLSCAASGRTFSMGWFRQAPGKEREFVAAITYSGGSPYYASSVRGRFTISRDNAKNTVYLQMNSLKPEDTAVYYCAANPTYGSDWNAENWGQGTQVTVSSGSGGGGSGGGGSGGGGSFEQVQLQQPGAELVKPGASVKMSCKASGYAFSSYWINWMKQKPGQGLEWIGQIYPGDGDTNYNGKFKGRATLTADTSSSTAYMQLSSLTSEDSAVYFCARSITTVVGCAMDYWGQGTSVTVSSTRIQNPDPAVYQLRDSKSSDKSVCLFTDFDSQTNVSQSKDSDVYITDKCVLDMRSMDFKSNSAVAWSNKSDFACANAFNNSIIPEDTFFPSSDVPCDVKLVEKSFETDTNLNFQNLSVIGFRILLLKVAGFNLLMTLRLWSSRAKRSGSGVKQTLNFDLLKLAGDVESNPGPSRGHMTEYKPTVRLATRDDVPRAVRTLAAAFADYPATRHTVDPDRHIERVTELQELFLTRVGLDIGKVWVADDGAAVAVWTTPESVEAGAVFAEIGPRMAELSGSRLAAQQQMEGLLAPHRPKEPAWFLATVGVSPDHQGKGLGSAVVLPGVEAAERAGVPAFLETSAPRNLPFYERLGFTVTADVEVPEGPRTWCMTRKPGA
B6: 22223 (protein)
chain: MALPVTALLLPLALLLHAARPDIQMTQSPSSLSASVGDRVTITCKASDHINNWLAWYQQKPGQAPKLLIYGATTLETGVPSRFSGSGSGTDYTLTISSLQPEDFATYYCQQSWNTPWTFGQGTKLEIKRLEDLKNVFPPEVAVFEPSEAEISHTQKATLVCLATGFYPDHVELSWWVNGKEVHSGVCTDPQPLKEQPALNDSRYCLSSRLRVSATFWQNPRNHFRCQVQFYGLSENDEWTQDRAKPVTQIVSAEAWGRADCGFTSESYQQGVLSATILYEILLGKATLYAVLVSALVLMAMVKRKDSRGRAKRSGSGATNFSLLKQAGDVEENPGPTSATMDWIWRILFLVGAATGAHSGPQLGPYELWELSHGSGPLGIAGIFEQVQLQQPGAELVKPGASVKMSCKASGYAFSSYWINWMKQKPGQGLEWIGQIYPGDGDTNYNGKFKGRATLTADTSSSTAYMQLSSLTSEDSAVYFCARSITTVVGCAMDYWGQGTSVTVSSTRIQNPDPAVYQLRDSKSSDKSVCLFTDFDSQTNVSQSKDSDVYITDKCVLDMRSMDFKSNSAVAWSNKSDFACANAFNNSIIPEDTFFPSPESSCDVKLVEKSFETDTNLNFQNLSVIGFRILLLKVAGFNLLMTLRLWSSRAKRSGSGVKQTLNFDLLKLAGDVESNPGPSRGHMTEYKPTVRLATRDDVPRAVRTLAAAFADYPATRHTVDPDRHIERVTELQELFLTRVGLDIGKVWVADDGAAVAVWTTPESVEAGAVFAEIGPRMAELSGSRLAAQQQMEGLLAPHRPKEPAWFLATVGVSPDHQGKGLGSAVVLPGVEAAERAGVPAFLETSAPRNLPFYERLGFTVTADVEVPEGPRTWCMTRKPGA

Each molecule was assayed on RAJI cells (assay: JNG assay, co-culture with RAJI cells). Conditions: JNG cells expressing construct, co-culture with Raji.
Format: cell-based
Outline: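 Jurkat NFAT-GFP (JNG) cells stably transduced with SARs by lentivirus, with drug selection where the construct carried a resistance gene, then co-cultured with target cells at E:T ~1:2 for ~4–18 h. % GFP-positive cells measured by FACS against parental JNG; +/- to 5+ correspond to ~5–50% GFP-positive.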
With B1 the “NFAT-GFP ASSAY: Raji” value was 5+ (refer to approximately 5%, 10%, 20%, 30%, 40% and 50% GFP positive cells). With B2 the “NFAT-GFP ASSAY: Raji” value was 4+ (refer to approximately 5%, 10%, 20%, 30%, 40% and 50% GFP positive cells). B3 was tested, and the “NFAT-GFP ASSAY: Raji” value was “Raji (3+) (refer to approximately 5%, 10%, 20%, 30%, 40% and 50% GFP positive cells)”. B4 was tested, and the “NFAT-GFP ASSAY: Raji” value was “Raji (+/-) (refer to approximately 5%, 10%, 20%, 30%, 40% and 50% GFP positive cells)”. For B5, the “NFAT-GFP ASSAY: Raji” value was “Raji (2+) (refer to approximately 5%, 10%, 20%, 30%, 40% and 50% GFP positive cells)”. B6 was tested, and the “NFAT-GFP ASSAY: Raji” value was “Raji (3+) (refer to approximately 5%, 10%, 20%, 30%, 40% and 50% GFP positive cells)”.
